These results are taken from paper PMC5701160.

This test addresses PSI core complex (Haematococcus pluvialis (endogenous in strain K-0084)). Nature of the test: estimate from pigment ratios (HPLC) of the isolated B5 fraction; from Chl a/b and Chl/Car ratios, assuming 3.4 Cars per Lhca subunit and 100 Chl a per PSI core complex.

Take LHCI antenna proteins: the stoichiometry N (Lhca proteins per P700) is 5.
